Experimental data as given in IntAct's records for PubMed 20956536.

B1: Coiled-coil domain-containing protein 141 (Homo sapiens), Q6ZP82-1 (parent)
chain: MSSQGSPSVALSTTTVSSVAVQAGDSKIVIAVIKCGKWVQLQLAESQPNLLEIGSSQDETKKLLHDHELLLAKLKALEDRVWELLQEADKTAEENKDQSQVYDAMAETLGEAWAALVSMLERRTELLRLTSEFFENALEFAIKIDQAEDFLQNTHEFESAESLKSLLQLHEHHTKELLERSLALLNKSQQLTDFIEKFKCEGPNVNPELTQGAHSSCLKVDRLLELLQDRRRQLDKYLKQQWQELSQVLQICQWDQQENQVTCWFQKTIRNLQEQSLGSSLSDNEDRIHKQEELIIKAKEWNSAVEKLKSEALRILLSKDYVEKEHLQLSHQKLSQLQEEFGQLMVERNTWLKKANEFFNSANKAFDVLGRVEAYLKLLKSEGLSLAVLAVRHEELHRKIKDCTTDALQKGQTLISQVDSCSSQVSGIHEMMGCIKRRVDHLTEQCSAHKEYALKKQQLTASVEGYLRKVEMSIQKISPVLSNAMDVGSTRSESEKILNKYLELDIQAKETSHELEAAAKTMMEKNEFVSDEMVSLSSKARWLAEELNLFGQSIDYRSQVLQTYVAFLKSSEEVEMQFQSLKEFYETEIPQKEQDDAKAKHCSDSAEKQWQLFLKKSFITQDLGLEFLNLINMAKENEILDVKNEVYLMKNTMENQKAEREELSLLRLAWQLKATESKPGKQQWAAFKEQLKKTSHNLKLLQEALMPVSALDLGGSLQFILDLRQKWNDMKPQFQQLNDEVQYIMKESEELTGRGAPVKEKSQQLKDLIHFHQKQKERIQDYEDILYKVVQFHQVKEELGRLIKSRELEFVEQPKELGDAHDVQIHLRCSQEKQARVDHLHRLALSLGVDIISSVQRPHCSNVSAKNLQQQLELLEEDSMKWRAKAEEYGRTLSRSVEYCAMRDEINELKDSFKDIKKKFNNLKFNYTKKNEKSRNLKALKYQIQQVDMYAEKMQALKRKMEKVSNKTSDSFLNYPSDKVNVLLEVMKDLQKHVDDFDKVVTDYKKNLDLTEHFQEVIEECHFWYEDASATVVRVGKYSTECKTKEAVKILHQQFNKFIAPSVPQQEERIQEATDLAQHLYGLEEGQKYIEKIVTKHKEVLESVTELCESLTELEEKLKQGDVLKMNPNLEDFHYDYIDLLKEPAKNKQTIFNEERNKGQVQVADLLGINGTGEERLPQDLKVSTDKEGGVQDLLLPEDMLSGEEYECVSPDDISLPPLPGSPESPLAPSDMEVEEPVSSSLSLHISSYGVQAGTSSPGDAQESVLPPPVAFADACNDKRETFSSHFERPYLQFKAEPPLTSRGFVEKSTALHRISAEHPESMMSEVHERALQQHPQAQGGLLETREKMHADNNFTKTQDRLHASSDAFSGLRFQSGTSRGYQRQMVPREEIKSTSAKSSVVSLADQAPNFSRLLSNVTVMEGSPVTLEVEVTGFPEPTLTWWVAYNDKP
partner: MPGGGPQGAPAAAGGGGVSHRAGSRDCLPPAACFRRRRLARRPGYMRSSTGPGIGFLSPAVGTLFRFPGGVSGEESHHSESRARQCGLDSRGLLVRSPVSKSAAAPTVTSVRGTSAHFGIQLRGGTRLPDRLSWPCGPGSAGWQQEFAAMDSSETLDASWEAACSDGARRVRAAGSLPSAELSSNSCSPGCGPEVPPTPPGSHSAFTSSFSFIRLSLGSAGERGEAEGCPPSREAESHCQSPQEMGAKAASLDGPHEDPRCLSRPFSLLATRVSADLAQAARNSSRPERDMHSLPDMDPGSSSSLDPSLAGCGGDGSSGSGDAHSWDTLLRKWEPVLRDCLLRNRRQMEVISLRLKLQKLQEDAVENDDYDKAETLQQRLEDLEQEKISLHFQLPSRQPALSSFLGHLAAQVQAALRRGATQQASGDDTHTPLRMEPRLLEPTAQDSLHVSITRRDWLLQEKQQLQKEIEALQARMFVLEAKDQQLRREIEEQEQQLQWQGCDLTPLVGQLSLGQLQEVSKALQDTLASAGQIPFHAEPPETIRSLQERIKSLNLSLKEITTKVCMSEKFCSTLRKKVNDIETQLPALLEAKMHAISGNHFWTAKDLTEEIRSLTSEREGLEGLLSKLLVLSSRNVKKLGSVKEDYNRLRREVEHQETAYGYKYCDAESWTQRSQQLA
B2: Myosin regulatory light polypeptide 9 (Homo sapiens), P24844 (parent)
chain: MSSKRAKAKTTKKRPQRATSNVFAMFDQSQIQEFKEAFNMIDQNRDGFIDKEDLHDMLASLGKNPTDEYLEGMMSEAPGPINFTMFLTMFGEKLNGTDPEDVIRNAFACFDEEASGFIHEDHLRELLTTMGDRFTDEEVDEMYREAPIDKKGNFNYVEFTRILKHGAKDKDD
B3: Coiled-coil domain-containing protein 141 (Homo sapiens), Q6ZP82-1 (parent)
chain: B1 chain
partner: B2 chain

Variants of: B1
Conditions: with DISC1, Q9NRI5-3

effect of a mutation on the interaction | Variant
with no effect | R828W

Variants of: B2
Conditions: with cc141_mouse Ccdc141, E9Q8Q6
Chain of cc141_mouse Ccdc141, E9Q8Q6 (E9Q8Q6 whole entry): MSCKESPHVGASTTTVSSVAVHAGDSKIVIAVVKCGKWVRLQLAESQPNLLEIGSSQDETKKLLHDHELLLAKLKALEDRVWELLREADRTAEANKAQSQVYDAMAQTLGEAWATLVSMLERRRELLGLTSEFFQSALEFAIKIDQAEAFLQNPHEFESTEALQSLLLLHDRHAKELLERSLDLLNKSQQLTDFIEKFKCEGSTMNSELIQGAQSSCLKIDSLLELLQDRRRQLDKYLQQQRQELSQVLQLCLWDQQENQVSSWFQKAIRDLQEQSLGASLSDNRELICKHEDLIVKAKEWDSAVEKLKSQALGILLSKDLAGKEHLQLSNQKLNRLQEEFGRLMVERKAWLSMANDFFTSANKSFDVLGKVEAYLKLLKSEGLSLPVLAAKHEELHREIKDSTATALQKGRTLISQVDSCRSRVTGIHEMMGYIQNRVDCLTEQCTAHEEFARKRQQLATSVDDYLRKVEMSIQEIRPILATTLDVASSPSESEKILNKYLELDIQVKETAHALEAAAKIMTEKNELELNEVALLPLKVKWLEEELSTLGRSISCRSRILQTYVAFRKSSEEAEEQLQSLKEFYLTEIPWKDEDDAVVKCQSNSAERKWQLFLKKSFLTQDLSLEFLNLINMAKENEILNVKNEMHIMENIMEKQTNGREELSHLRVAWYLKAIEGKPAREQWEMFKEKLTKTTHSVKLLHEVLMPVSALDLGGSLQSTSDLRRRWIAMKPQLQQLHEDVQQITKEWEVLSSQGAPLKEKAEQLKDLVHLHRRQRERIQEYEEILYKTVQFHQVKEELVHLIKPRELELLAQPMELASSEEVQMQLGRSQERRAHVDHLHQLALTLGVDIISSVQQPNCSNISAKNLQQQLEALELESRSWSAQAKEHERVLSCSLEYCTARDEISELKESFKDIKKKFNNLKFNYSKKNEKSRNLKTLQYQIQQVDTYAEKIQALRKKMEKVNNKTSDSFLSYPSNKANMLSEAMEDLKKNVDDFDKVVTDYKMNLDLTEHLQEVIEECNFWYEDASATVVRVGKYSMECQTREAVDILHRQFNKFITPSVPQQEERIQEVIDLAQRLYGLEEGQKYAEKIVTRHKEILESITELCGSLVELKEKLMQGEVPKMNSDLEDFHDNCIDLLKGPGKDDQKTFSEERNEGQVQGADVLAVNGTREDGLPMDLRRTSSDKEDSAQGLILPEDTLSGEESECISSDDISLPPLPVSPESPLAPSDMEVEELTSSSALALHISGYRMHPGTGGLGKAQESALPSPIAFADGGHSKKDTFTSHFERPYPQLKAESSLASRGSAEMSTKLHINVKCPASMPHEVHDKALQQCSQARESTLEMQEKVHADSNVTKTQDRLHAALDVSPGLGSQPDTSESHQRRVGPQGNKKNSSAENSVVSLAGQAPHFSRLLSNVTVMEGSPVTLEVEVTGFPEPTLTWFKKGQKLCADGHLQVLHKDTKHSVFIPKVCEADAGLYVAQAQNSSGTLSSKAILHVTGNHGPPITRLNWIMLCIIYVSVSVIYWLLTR

effect of a mutation on the interaction | Variant
increasing interaction strength | MSSKRAKAKTTKKRPQRADDNVFAMFDQSQIQEFKEAFNMIDQNRDGFIDKEDLHDMLASLGKNPTDEYLEGMMSEAPGPINFTMFLTMFGEKLNGTDPEDVIRNAFACFDEEASGFIHEDHLRELLTTMGDRFTDEEVDEMYREAPIDKKGNFNYVEFTRILKHGAKDKDD [T19D;S20D]
disrupting interaction strength | MSSKRAKAKTTKKRPQRAAANVFAMFDQSQIQEFKEAFNMIDQNRDGFIDKEDLHDMLASLGKNPTDEYLEGMMSEAPGPINFTMFLTMFGEKLNGTDPEDVIRNAFACFDEEASGFIHEDHLRELLTTMGDRFTDEEVDEMYREAPIDKKGNFNYVEFTRILKHGAKDKDD [T19A;S20A]

Variants of: B3
Conditions: with myl9_human MYL9, P24844

effect of a mutation on the interaction | Variant
disrupting interaction strength | R828W
